In the DeepSol protein solubility set:

Assay: soluble on expression in E. coli; label from the status in PepcDB or PDB records

Sequence	soluble on expression in E. coli
MERPQLDSMSQDLSEALKEATKEVHIRAENSEFMRNFQKGQVSREGFKLVTASLYHIYTALEEEIERNKQNPVYAPLYFPEELHRRAALEQDLAFWYGPHWQEAIPYTPATQHYVKRLHEVGGTHPELLVAHAYTRYLGDLSGGQVLKKIAQKALALPSSGEGLASFTFPSIDNPTKFKQLYRARMNTLELTPEVKHRVTEEAKTAFLLNIELFEELQALLTEEHKDQSPSQTEFLRQRPASLVQDTTSAETPRGKSQISTSSSQTP	soluble
MERVYRTDLKLLRYFLAVAEELHFGRAAARLNMSQPPLSIHIKELENQLGTQLFIRHSRSVVLTHAGKILMEESRRLLVNANNVLARIEQIGRGEAGRIELGVVGTAMWGRMRPVMRRFLRENPNVDVLFREKMPAMQMALLERRELDAGIWRMATEPPTGFTSLRLHESAFLVAMPEEHHLSSFSTVPLEALRDEYFVTMPPVYTDWDFLQRVCQQVGFSPVVIREVNEPQTVLAMVSMGIGITLIADSYAQMNWPGVIFRPLKQRIPADLYIVYETQQVTPAMVKLLAALTQ	soluble
MESDTSRTPYNSIYATLKNKKTDGEVVCCVHGRRCSYGKGNQDGKRDDNQYVNLPFLKNQDQIASKLTGKLNKLKIAEEKENKIVPREKPEMMSLNTLVEIARAGEQPRKGRGDKEKRTKKAPVLVDDSQLYVMIGPPSEHPGEPPASEPTETYKTNTIDESTFKGSEALSAYIGVVTLANAENHLTRRGEFALYHLFNPNGRLDTITDKLPLMIVYRTTTKKNRHYSIRTTCDQQFFVDCGYPNVRKHYSLSHLVMFYKTSATCEINPDDTSADSFSWWLE	not soluble
MESLLTLPLAGEARVRILQITDTHLFAEKHETLLGVNTWESYQAVLEAIRAQQYEYDLIVATGDLAQDQSAAAYQHFAEGIASFRAPCVWLPGNHDFQPAMYSALQEAGISPAKRVLIGEQWQILLLDSQVFGVPHGELSEFQLEWLERKLADAPERQTLLLLHHHPLPAGCSWLDQHSLRNAGELDSVLANFPRVKYLLCGHIHQELDLDWNGRRLLASPSTCVQFKPHCANFTLDTIAPGWRTLELRANGVLETEVHRLQDTRFRPDTASEGY	not soluble
MESNNNEKKKVARQSSSFRLRSPSLNALRLQRIFDLFDKNGDGFITVEELSQALTRLGLNADLSDLKSTVESYIQPGNTGLNFDDFSSLHKTLDDSFFGGACGGGENEDDPSSAAENESDLAEAFKVFDENGDGFISARELQTVLKKLGLPEGGEMERVEKMIVSVDRNQDGRVDFFEFKNMMRTVVIPSS	soluble
MESNTWNTIHDNKKENAALNDVQVEVNYAIKLDDQWTVRPGMLTHFSSNGTRYGPYVKLSWDATKDLNFGIRYRYDWKAYRQQDLSGDMSRDNVHRWDGYVTYHINSDFTFAWQTTLYSKQNDYRYANHKKWATENAFVLQYHMTPDITPYIEYDYLDRQGVYNGRDNLSENSYRIGVSFKL	not soluble
MESTVTTQEEKLAYQQSVEMASNYANQFDADMKANLAIARTISTTMESYETADRDEALLILENLLRDNPHLLGTYVAFEPDAFDGKDAEYTNSPAHDGTGRFVPYWNKMNGTASVAPLLHYDSSDYYQLPKATEKDVLTEPYFYEGVFMVSYVSPIMKEGEFAGIGGVDVSLEYVDEVVSKVRTFDTGYAFMVSNSGVILSHPTHKDWIGKKDLYDFGGEELEKASRDIKNGIGGHLETADPTTGKTVILFYEPVETGDFAFVLVVPKEEMLAGVADLRERLLEHHHHHH	soluble
MESVPSPRRVVLTPGARRALDAAGRLFYERGIHAVGVDLIAAEAGVTKKTLYDRFGSKEQIVVEYLADRDERWRAFLAGHLDTAGDSPGRRLTAIFDASREWTAENSAKGCSMVNAHAEISDPAHPAYAVIVGQKRWMLDLFTGVCRDASVRDPETLARTVMLLHEGALVSHGLQVFPEAVRLASDQASALLAAAAGPAR	not soluble
METAPKPVGPYSQAVESGCFMFVSGQIPINPETGALEEGGFKESAKRALDNLKAIVEGAGYSMDDIVKVTVYITDISRFSEFNEVYREYFNRPYPARAVVGVAALPLGAPLEVEAVLYTCRRK	soluble
METESWKLLESSIIYYEGNPIGTVAAQDPELAALNYDQCFLRDFVPSAFVFLMDGQTDIVRNFLIETLTLQSHEKEMDCFQPGAGLMPASFKVESDGSKEYLVADFGEKAIARVPPVDSCMWWILLLRAYEKATGDLTLAREPKFQAGIKLILDLCLAHRFSMYPTMLVPDGAFMIDRRMGVYEHPLEIQVLFYAALRAARELLLPDGDGEQYLNKVHGRLGALQYHIRNYYWVDLKRLREIYRYKGNEFGKEIANKFNIFSQSIPDWVIEWLPEKGGYLAGNLGPGRMDFRFFALGNLMAILAGLASEEESQRIMNLFAHRWEDLIGYMPVKICYPALQGLEWQIVTGCDPKNIPWSYHNGGNWPVLLWLFTAAALKTGKVELAHEAIAIAEGRLSNDKFPEYYDGNNGRLIGKEARIYQTWSIAGLLVAKQFLANPDHVEFISFPDTFIGPGCSLLEHHHHHH	soluble
METRAAENTAIFMCKCCNLFSPNQSELLSHVSEKHMEEGVNVDEIIIPLRPLSTPEPPNSSKTRDEFLVMKRKRGRPKGSTKKSSTEEELAENIVSPTEDSPLAPEEGNSLPPSSLECSKCCRKFSNTRQLRKHICIIVLNLGEEEGEAGNESDLELEKKCKEDDREKASKRPRSQKTEKVQKISGKEARQLSGAKKPIISVVLTAHEAIPGATKIVPVEAGPPETGATNSETTSADLVPRRGYQEYAIQQTPYEQPMKSSRLGPTQLKIFTCEYCNKVFKFKHSLQAHLRIHTNEKPYKCPQCSYASAIKANLNVHLRKHTGEKFACDYCSFTCLSKGHLKVHIERVHKKIKQHCRFCKKKYSDVKNLIKHIRDAHDPQDKKVKEALDELCLMTREGKRQLLYDCHICERKFKNELDRDRHMLVHGDKWPFACELCGHGATKYQALELHVRKHPFVYVCAVCRKKFVSSIRLRTHIKEVHGAAQEALVFTSSINQSFCLLEPGGDIQQEALGDQLQLVEEEFALQGVNALKEEACPGDTQLEEGRKEPEAPGEMPAPAVHLASPQAESTALPPCELETTVVSSSDLHSQEVVSDDFLLKNDTSSAEAHAAPEKPPDMQHRSSVQTQGEVITLLLSKAQSAGSDQESHGAQSPLGEGQNMAVLSAGDPDPSRCLRSNPAEASDLLPPVAGGGDTITHQPDSCKAAPEHRSGITAFMKVLNSLQKKQMNTSLCERIRKVYGDLECEYCGKLFWYQVHFDMHVRTHTREHLYYCSQCHYSSITKNCLKRHVIQKHSNILLKCPTDGCDYSTPDKYKLQAHLKVHTALDKRSYSCPVCEKSFSEDRLIKSHIKTNHPEVSMSTISEVLGRRVQLKGLIGKRAMKCPYCDFYFMKNGSDLQRHIWAHEGVKPFKCSLCEYATRSKSNLKAHMNRHSTEKTHLCDMCGKKFKSKGTLKSHKLLHTADGKQFKCTVCDYTAAQKPQLLRHMEQHVSFKPFRCAHCHYSCNISGSLKRHYNRKHPNEEYANVGTGELAAEVLIQQGGLKCPVCSFVYGTKWEFNRHLKNKHGLKVVEIDGDPKWETATEAPEEPSTQYLHITEAEEDVQGTQAAVAALQDLRYTSESGDRLDPTAVNILQQIIELGAETHDATALASVVAMAPGTVTVVKQVTEEEPSSNHTVMIQETVQQASVELAEQHHLVVSSDDVEGIETVTVYTQGGEASEFIVYVQEAMQPVEEQAVEQPAQEL	soluble
METSETDSTGNTQTCETRQTRSNSWTAWGIHAISTITDGAKQLYTKALGLDELEEKKLEDEEGVTHVEVDEKTKRDLWNQLSTLVGADVINMRLSLPVWLFEPTTALQRMCETLQFHQLLDMAATCEEPVERDALVAAFTVSAFAHTERVYKPFNPVLGETFEWTSRDGTTRVLCEQVSHHPPVSVSYTEGPGWVAQEVFSCNAYFLGNSVEIRNTGSRYVYLTSFDERYEWTLPVSAAQNLFVGGSFIDHYGELILRSSPRGSVTSLTFTKCGWFGRGRYAVNGDIVDADGYRVMELSGEWNRGLVGFRLDKSSGERVDAKSLWYAGEHKPAVKRDKYNFTNFTYELLEVPDNAESIIPPTDSRFRPDRRALEGNNLSLANLEKVRVENIQRERENQRQKTGTTYVPAWFYQDDNNEWHFGGKYWKETRNMSEDQKEQMKLW	soluble
METTQTLRFKTKALAVLSKCYDHAQTHLKGGVLQVNLLSVNYGGPRLAAVANAGTAGLISFEVSPDAVAEWQNHQSPEEAPAAVSFRNLAYGRTCVLGKELFGSAVEQASLQFYKRPQGGSRPEFVKLTMEYDDKVSKSHHTCALMPYMPPASDRLRNEQMIGQVLLMPKTASSLQKWARQQGSGGVKVTLNPDLYVTTYTSGEACLTLDYKPLSVGPYEAFTGPVAKAQDVGAVEAHVVCSVAADSLAAALSLCRIPAVSVPILRFYRSGIIAVVAGLLTSAGDLPLDLSVILFNHASEEAAASTASEPEDKSPRVQPLGTGLQQRPRHTVSPSPSPPPPPRTPTWESPARPETPSPAIPSHSSNTALERPLAVQLARKRTSSEARQKQKHPKKVKQAFNPLI	soluble
MEVEVEKDCRTECSREREIEKERSKDEFHGLIEIDGECMQSGNRKWKRIDSAVKVAKKEKKKKMKDEEKKKEDEDNLQHTIQQSE	soluble
MEVGMIPRVYLGHEWFGAERILSEYQVPEDCGAQVLFLGIPRNAPEDGGNIEALEYEAYPEMAIKEMEKIRQETIEKFGVKEVFIHHRLGLVKIGEPSFLVLAVGGHREETFKACRYAVDETKKRVPIWKKEIFKEGKGEWVLGEKKNASGQTK	soluble
MEVKLWNDKREREMYENFAELFAIIKATEKLEKAYIRDLINPSEYESECQKLIVHFKTLSATLKDTVPNIERFADTYKMDCPAALYRLVTSGLPATVEHRATVAASTSNSASIVAECVQNFITSMDSLKLNMVAVDQVYPLLSDLSASLNKLSILPPDFEGKTKMKEWLSRLSKMGAADELTEQQSRQLHFDLESSYNSFMAALPKAGN	soluble
MEVSTVNDVKIYNLSAGKSLPEWMSSRTRRKLEQRNTDVRQRIQLIQDFEMPDVSNTVNITPDGKYVWASGNYKPWLRCYDLNNLSLKFERGLDADVIKLIPLSDDYSKVVILEEERWIEMHAMLGRYFRMRMPCQGRDMALSEESSDLYLVGSKSEVYRFNLEQGCWLTPFESTAPLNCVQVCTEHQLICCGTTNGVVEAWDHRDKSLCGTLDAGSSVNSHIGENQKVAVTSVAFSDPLHIGVGTSTGQILIYDLRARRPLLIKDHNNELPINKLDFIKRDDGDVVASMDSRMMKLWHEEDGSPMAAIENTCPLNDFCRFPNSGMFFFANEAPKMLQYFIPQLGPAPKWCSYLENLTEEMEETETTVYDNYRFVTKKQLDDLGLSGLIGTNVLRAYMHGYFIDARLYNKAQTQMQPFAYEKYKDEKIKSMIADEREESAVKKKVEKLPAVNKALAARLRDEASAANQKAETKKEKKKSKKSDAATSLLADDRFKKLFESEDFEVDETSEQFLKNASIAQKMKAKGPVEVESEGEESEDNDASDSENEASGSDSEPKGSASWMVEENREVDMASDLESASSDEDIDQSLKAKRAKVRAAKKSERNIQKSQKYDERKEAKKIRKEQRQLSKPSKFVLHSIGTGETTRKFVDETVAVRDDADNKDSMALGARKRATARSDRKTKKVNDDDVPFGGREMTFTISKRDKDLRAEAAKTKQAAHAAERKEVSRRPNALVTKGLKKLPGNVNVGKRQNTF	soluble
MEWKGRDVISIRDFSKEDIEVVLSTAERLEKEMKEKGQLEYAKGKILATLFFEPSTRTRLSFESAMHRLGGSVIGFAEASTSSVKKGESLRDTIKTVEQYSDVIVIRHPKEGAARLAAEVADIPVINAGDGSNQHPTQTLLDLYTIKKEFGTIDGLKIGLLGDLKYGRTVHSLAEALAFYDVELYLISPELLRMPKHIVEELRERGMKIVETTKLEEVIGELDVLYVTRIQKERFPDEQEYLKVKGSYQVNLKILENVKDSLRIMHPLPRVDEIHPEVDKTKHAIYFKQVFNGVPVRMALLALVLGVI	soluble
